Source: the DeepSol protein solubility set

experiment: soluble on expression in E. coli; label from the status in PepcDB or PDB records

Row | Sequence | soluble on expression in E. coli
1 | MSLDFRSADFLRTHISDTMAFYHPRCIDSAGGFFHYFRDDGSIYNATHRHLVSSTRFVFNYAMAYLQFGTAEYLDAVHHGLSYVRDVHRNPATGGYAWTLCDDRVEDDTNHCYGLAFVMLAYSCGLKVGIKQAREWMDETWCLLERHFWDAEYGLYKDEADAQWNFTRYRGQNANMHMCEAMLAAYEASGEQRYLERALVLADRITRRQAAKADGLVWEHYDMRWEVDWDYNRDNPKHLFRPWGFQPGHQTEWAKLLLILDRYIEVEWLVPVARSLFDVAVARSWDAVRGGLCYGFAPDGTICDDDKYFWVQAESLAAAALLATRSGDERYWQWYDRLWAYAWQHMVDHRYGAWYRLLDGDNRKYNDEKSPAGKTDYHTMGACHEVLNVVWTKSEGHHHHHH | soluble
2 | MGSDKIHHHHHHMRVKYFGTDGIRGIFGETLTDELAFKVGKALGEIVGEGKVIVGKDTRVSGDSLEAAISAGLTSMGVDVLLCGILPTPAVALLTRITRSFGVVISASHNPPEYNGIKVLKGGYKIPDEMEAEIEKRLENGSFLTRSVVGRTKSFREGRDMYIGAVLEMFRDLDLTGEMVSLDLANGATTTTAREVFEFLGAKVEVFNDSQDGLLINQGCGATHPRFLAEEMKNGKVGFTFDGDGDRVIAVDEERNVVNGDRIIGILAVGLKEEGRLNSDTVVGTVMTNGGLEDFLKEKGIRLLRTKVGDKYVLEKMLESGANLGGERSGHIIILDRSTTGDGLITALELMRVLKRSGRKLSDFAKEIPDYPQITKNVRRTERMSLENENLRKIVEESTSRGYRVVIRPSGTEPVIRITVEGKDREEIEKIVEEISRVLES | not soluble
3 | MAVGSVATLATEPGEDAFRKLFRFYRQSRPGTADLEGVIDFSAAHAARGKGPGAQKVIKSQLNVSSVSEQNAYRAGLQPVSKWQAYGLKGYPGFIFIPNPFLPGYQWHWVKQCLKLYSQKPNVCNLDKHMSKEETQDLWEQSKEFLRYKEATKRRPRSLLEKLRWVTVGYHYNWDSKKYSADHYTPFPSDLGFLSEQVAAACGFEDFRAEAGILNYYRLDSTLGIHVDRSELDHSKPLLSFSFGQSAIFLLGGLQRDEAPTAMFMHSGDIMIMSGFSRLLNHAVPRVLPNPEGEGLPHCLEAPLPAVLPRDSMVEPCSMEDWQVCASYLKTARVNMTVRQVLATDQNFPLEPIEDEKRDISTEGFCHLDDQNSEVKRARINPHSLEHHHHHH | soluble
4 | MSPWERILLEEILSEPVRLVKERVRTHTGRELTYVYRPGPVAASFVLPVTERGTALLVRQYRHPTGKFLLEVPAGKVDEGETPEAAARRELREEVGAEAETLIPLPSFHPQPSFTAVVFHPFLALKARVVTPPTLEEGELLESLELPLTEVYALLAKGEIQDASTALTLFYAEPHLKRLGLL | soluble
5 | MTGQPSTPVRPGSVVRTVRRHRGGRSATVQDMVAAEMPVAFNYNGVPFAVMMATPEDLEDFALGFSLSEGIVDHPQDLRVVAVDTFLEGASLQIEIPPERAAALDQRRRNLDGRSGCGVCGNESIEAVLRVPPVLQSALRIDVDALARALDALHARQPIAAQTGAVHAAGWADAQGMVQLVREDVGRHNALDKLIGALARARVDATQGFAVVTSRASYEMAMKAAQARIPLLAAISAPTALAISLADSAGLTLIGFARDHDCVVYSHPQRLDLGVAVGEPALEHHHHHH | not soluble
6 | ALSAKLTLDKVDLKGKRVIMRVDFNVPMKNNQITNNQRIKAAIPSIKHCLDNGAKSVVLMSHLGRPDGIPMPDKYSLEPVADELKSLLNKDVIFLKDCVGPEVEQACANPDNGSIILLENLRFHVEEEGKGKDSSGKKISADPAKVEAFRASLSKLGDVYVNDAFGTAHRAHSSMVGVNLPQKASGFLMKKELDYFSKALEKPERPFLAILGGAKVKDKIQLIKNMLDKVNFMIIGGGMAYTFLKELKNMQIGASLFDEEGATIVKEIMEKAEKNGVKIVFPVDFVTGDKFDENAKVGQATIESGIPSGWMGLDCGPESIKINAQIVAQAKLIVWNGPIGVFEWDAFAKGTKALMDEVVKATSNGCVTIIGGGDTATCCAKWGTEDKVSHVSTGGGASLELLEGKILPGVEALSNM | soluble
7 | MSLKDITLQVALPKFGYKENVKSFVLEVIAKDSSFWNFFSGNEARKQIAVLVDNTAPKINIISNSYQIEQGGAGAVVFKADDANLDKVYIETNKGKIFKATPYVKEGYYAALIAWDARDEEFRAFVIATDKAGNISKERIRYYFVNRKYRVSNINLTDKFLDGKIENLANQYAPKDNNLNRYEKFKFVNETLRNSNEKLIHEITSKVPEEKIDNFDLNLFLPLKNGMKVADFADHRYYSYNGQFVSDSYHMGLDLASVAQAPIISNNAGKVVFAAENGIYGLNLIVYHGFGVYSLYGHCSSKNVDLDEMINKQSIIGKTGTSGLALGDHLHFGVLVQGVETRPEQWQDKKWIENNIYNVLNDGKKIILGKNEGHHHHHH | not soluble
8 | MVSSLFINPFSEDAREIVRKYGSLDTIDDTRDELLEIGRRTRGQNLADNSLLPASIAELAVKRLEWYLRRQRKDFNHRDYAYLMNPEIEEYDVLAFYILAQAAGAGFMKASREARLVVESAGAMVEDRLNVFGGEREEIMAEVLYELGSEGLRWTELADLLGSGKLKLTDLILKEGRVIIDRDEFITSFQDSIRDRSPDRLYDILVGLEVRETMISRMIMQRTEEYIGMVREMSSTVEVHPLILETAERIRETVEEIMSFTGGPVKSARPGKLVQEAFPPCIRGTLDGVRSGNRNDAIVLLLTSFISYARLYPSVFRDRTPMKVSDLDPDLRITLGEILPVIYDAADRCEPPLFEDDPQEKLNITAKLGFGVHDMPELENEGESKWYTPMSCEKIKIHLPDLCRPDKLCSSISNPLTYYNRKRWKLRSSGEKEELEHHHHHH | not soluble
9 | MPENYTPAAAATGTWTEEEIRHQPRAWIRSLTNIDALRSALNNFLEPLLRKENLRIILTGAGTSAFIGDIIAPWLASHTGKNFSAVPTTDLVTNPMDYLNPAHPLLLISFGRSGNSPESVAAVELANQFVPECYHLPITCNEAGALYQNAINSDNAFALLMPAETHDRGFAMTSSITTMMASCLAVFAPETINSQTFRDVADRCQAILTSLGDFSEGVFGYAPWKRIVYLGSGGLQGAARESALKVLELTAGKLAAFYDSPTGFRHGPKSLVDDETLVVVFVSSHPYTRQYDLDLLAELRRDNQAMRVIAIAAESSDIVAAGPHIILPPSRHFIDVEQAFCFLMYAQTFALMQSLHMGNTPDTPSASGTVNRVVQGVIIHPWQA | soluble
10 | EETDESNDMRPLFDTILKYTPAPSGSADETLQLQISQLDYDNYTGRLGIGRILNGRIKPGQTVAVMNHDQQIAQGRINQLLGFKGLERVPLEEAEAGD | not soluble
11 | MSLNTPLAERLRPKKLEDYLSQHHLVGENGSLQQALKAGIIPSLILWGPPGIGKTTLATIIAEESKRPFYTLSAINSGVKDIREVIDKAKQSGGLFTQKNPILFIDEIHRFSKSQQDSLLGAVERGWVTLVGATTENPSFEVIPALLSRCQVYILKPFEKKDLILLLNRAINTDEILKKKNITLLETEALLRLSGGDARKLLNIFELIVTTENDKDVVVTNDMVLSKVQQNIVRYDKTGEQHYDIISAFIKSIRGSDPNAAVYWLARMIEGGEDVKFIARRLIIAAAEDIGNANPTALVIANNCFQAVTTIGYPEARIILSQCVTYLASSPKSNAAYMAIGKAQQLVKQTGDLSVPLPLRNAPTKLMKEIGYGNDYKYSHDYPGNFVQQEFLPKEISGTTLYEPTDNTREKAIKENLKAKWGSKYNYEGHHHHHH | soluble
12 | SQAHVVDFELQYREAIDCPCRTFGVDRSIGQYLHILVCIEKIAVYQLHQIGSVLIGFVDTAFDYQRISRIDVGITYNIFEMPLGIIDPILQKQIMLDRLRP | not soluble
13 | MPKRIVYNISSDFQLKSLLGEGAYGVVCSATHKPTGEIVAIKKIEPFDKPLFALRTLREIKILKHFKHENIITIFNIQRPDSFENFNEVYIIQELMQTDLHRVISTQMLSDDHIQYFIYQTLRAVKVLHGSNVIHRDLKPSNLLINSNCDLKVCDFGLARIIDESAADNSEPTGQQSGMVEFVATRWYRAPEVMLTSAKYSRAMDVWSCGCILAELFLRRPIFPGRDYRHQLLLIFGIIGTPHSDNDLRCIESPRAREYIKSLPMYPAAPLEKMFPRVNPKGIDLLQRMLVFDPAKRITAKEALEHPYLQTYHDPNDEPEGEPIPPSFFEFDHYKEALTTKDLKKLIWNEIFS | soluble
14 | MGSDKIHHHHHHMKVLQFNQDATCCVVAASSHQISIFNCDPFGKCFEIDTKNSKKKTSNNNGSASNSESRNNEESILITNGSRDRTDAEEEEDNEDNALVTGNILKEGEFVIEMLFSTSLIAIADRGQGLNKGKKLKIVNTKRKCTICEIVFPHEIVDVVMNRKRMCVLLESDQIFIYDISCMKPLETIDLWEDHYKRSQANSFSNASNTGTLEGDSANLNRVATNLLANATQKSVNGSNPSVRTRRNSLRSKIRPRMVLSNDDRSILCFTAYSSPKKNKPNSEALYDVVIYDTLNVTPVNYLNSVHKGNVACLAVSHDGKLLATASDKGTIIRVFHTGVDSDYMSSRSLFKEFRRGTRLCNLYQLAFDKSMTMIGCVGDTDTIHLFKLDDASNSLPGDNSSNGHWNEEEYILASNSNPSMGTPKEIPLSKPRIANYFSKKIKSSIPNQNLSRNFAYITVNESNRSCLGFPDEFPNQVYIASDDGTFSIYSIPSKPGECVLTKNNKFT | not soluble
15 | MELVAYAMAAKLITETVQITINSISETLETINSDPTVRIDNLNELKRRNDEAHSQYMKELKEAREESDDALAKRQATADSQISELINSNNEAIRELQKKFDEDAAAYDRSIKETTREHDQKMKEMRSETREAQEKAERNHREKMSKIKEDHDKERVAALQKIDAAKKEGAEMIALVEMEKQKIVRERADEMNEHHKNMETMTKEYHQKREEIHEVIKNKKLDILKDKREHQRIEHEKISENMKNAFNALLNVQRENNAKHLVSNFQQLFEPVEDVKKLLDSVKIKIELVDGKDPKIEAEQLYDLEEIQAKKSIFENRIRRLRSILIHSSFTDRKLHEICSTTISNIETLMNKSDILSVCHHFPRAVEKQDLKKIKHYADMARSLSDTFSQELGNIIDTFSTSSGMYIIEKEHQEAIEN | soluble
16 | LKQLLALDKNIERMECFDISHTQGEATVASCVVFDTEGPRPSEYRRFNIEGITPGDDYAAMEQAVTRRFKRLIDVQLLPDVLIIDGGKGQVSIVKRVLTSLGVEDITLLGVSKGPSRKAGWEKLILVNENREFVLPEDSKALHLLQHIRDEAHRFAI | not soluble
17 | MGSDKIHHHHHHMTKNARQTALDVLNDIFGNDAYANISLDRNLRDSELSTVDKAFVTALVYGVVSKKDLLEWHITPFLKKEPKPWAKMLLLLTVYQILFMDKVPTSAAVDEAVKIAKRRDGQATANFINAVLRNFMRSEHRNEEPKDWETKYSMPKLLLDKMVRQFGGKRTGEILESLEKPSHVSLRKIDPTVEISGTRASLLTESALIADSGNFAMTEEFQSGRITIQDETSQLVAPQLDLEGTEEVLDACAAPGGKSTHMAQYLTIGHITALDLYDHKLDLINQNAERQHVADKITTQKADATMIFEEFGSDKFDRILVDAPCSGIGLIRRKPDIRYRKESSDFVDLQKIQLEILNSASKSLKKSGIMVYSTCTIFDEENFDVVRQFLESHPNFEQVEISSDKADMIKEGCIFITPEMYHTDGFFIAKFKKIGE | not soluble
18 | MKPKPLKCITSHHYIIKFYDKSNLRTSLYLLIFKEHKDYREQMKVYIIDYHKDDPKRCTGKKLVKLKIAEFTRVGKGVVLDPFAQITLSNKDKDIVRRIGITIVDTSWNNTSQSEFKNIRGEHRRIPILFAGNPIHYGIAYKLSSIEALIATLYIVDEVEEAIKLSNVVKWGHTFIELNKELLEAYKNKTEEDIKKIEREIIEKILEKLEHHHHHH | not soluble
